Measured values from patent publication US8063008B2, “Enzymatic production of peracids using perhydrolytic enzymes” (E. I. du Pont de Nemours and Company, priority 2005, dated 2011).

Key:
Type in all cases: biochemical
[1] = Lipase-catalyzed perhydrolysis of triacetin at pH 6.5 (Example 1); conditions: 250 mM triacetin, 500 mM H2O2, pH 6.5, 1 mg enzyme, 22° C.
Experimental: Into a 4-mL glass vial with stir bar was added 1 mg enzyme (ICR 101-117, BioCatalytics, Pasadena, Calif.) in 0.050 mL of 50 mM potassium phosphate buffer (pH 6.5), 0.900 mL of 278 mM triacetin in 50 mM potassium phosphate buffer (pH 6.5, 250 mM final triacetin concentration), and 0.052 mL 30% hydrogen peroxide (500 mM final concentration). After stirring for 5 or 30 minutes at 22° C., a 0.250 mL sample was filtered using a 30,000 Nominal Molecular Weight Limit (NMWL) filter (Millipore UltraFree-MC, Millipore Corp., Billerica, Mass.) centrifuged for 2 minute at 12,000 RPM. A portion of the filtered reaction samples was diluted 1:10 with dd water and analyzed for hydrogen peroxide, and the remaining portion of the sample was directly analyzed for peracid using the HPLC assay method (Table 1).

[2] = Lipase-catalyzed perhydrolysis of triacetin at pH 4.0 (Example 2); conditions: 250 mM triacetin, 500 mM H2O2, pH 4.0, 1 mg enzyme, 22° C.
Experimental: (§1) Into a 4-mL glass vial with stir bar was added 1 mg enzyme (ICR 101-117, BioCatalytics, Pasadena, Calif.) in 0.050 mL of 50 mM sodium acetate/acetic acid buffer (pH 4.0), 0.900 mL of 278 mM triacetin in 50 mM sodium acetate/acetic acid buffer (pH 4.0, 250 mM final triacetin concentration), and 0.052 mL 30% hydrogen peroxide (500 mM final concentration). […] A portion of the filtered reaction samples was diluted 1:10 with dd water and analyzed for hydrogen peroxide, and the remaining portion of the sample was directly analyzed for peracid using the HPLC assay method (Table 2).

[3] = Lipase-catalyzed perhydrolysis of a mixture of diacetin, triacetin and monoacetin at pH 6.5 (Example 4); conditions: diacetin (278 mM), triacetin (144 mM), monoacetin (131 mM); for 250 mM H2O2 peracetic acid (ppm), 5 min / 250 mM H2O2 peracetic acid (ppm), 30 min: pH 6.5, 250 mM H2O2, 1 mg enzyme; for 500 mM H2O2 peracetic acid (ppm), 5 min / 500 mM H2O2 peracetic acid (ppm), 30 min: pH 6.5, 500 mM H2O2, 1 mg enzyme
Experimental: Into a 4-mL glass vial with stir bar was added 1 mg enzyme (ICR 101-117, BioCatalytics, Pasadena, Calif.) in 0.050 mL of 50 mM potassium phosphate buffer (pH 6.5), 0.900 mL of an aqueous mixture containing diacetin (278 mM), triacetin (144 mM) and monoacetin (131 mM) in 50 mM potassium phosphate buffer (pH 6.5), and either 0.052 mL 30% hydrogen peroxide (500 mM final concentration) or 0.026 mL 30% hydrogen peroxide (250 mM final concentration). […] A portion of the filtered reaction samples was diluted 1:10 with dd water and analyzed for hydrogen peroxide, and the remaining portion of the sample was directly analyzed for peracid using the HPLC assay method (Table 4).

[4] = Protease-catalyzed perhydrolysis of acetamide at pH 4.0 (Example 6); conditions: pH 4.0, 500 mM H2O2, 1 mg protease
Experimental: as §1, with “protease (Table 6)” for “enzyme (ICR 101-117, BioCatalytics, Pasadena, Calif.)”, “an aqueous mixture containing either a) acetamide (278 mM)” for “278 mM triacetin”, “4.0) or b) diacetamide (278 mM) in 50” for “4.0, 250”, “sodium acetate/acetic acid buffer (pH 4.0),” for “final triacetin concentration),”, “7).” for “2).”

[5] = Protease-catalyzed perhydrolysis of diacetamide at pH 6.5 (Example 9); conditions: pH 6.5, 500 mM H2O2, 1 mg protease
Experimental: (§2) Into a 4-mL glass vial with stir bar was added 1 mg protease (Table 6) in 0.050 mL of 50 mM potassium phosphate buffer (pH 6.5), 0.900 mL of an aqueous mixture containing either a) acetamide (278 mM) in 50 mM potassium phosphate buffer (pH 6.5) or b) diacetamide (278 mM) in 50 mM potassium phosphate buffer (pH 6.5), and 0.052 mL 30% hydrogen peroxide (500 mM final concentration). […] A portion of the filtered reaction samples was diluted 1:10 with dd water and analyzed for hydrogen peroxide, and the remaining portion of the sample was directly analyzed for peracid using the HPLC assay method (Table 10).

[6] = Protease-catalyzed perhydrolysis of acetamide at pH 6.5 (Example 9); conditions: pH 6.5, 500 mM H2O2, 1 mg protease
Experimental: as §2

| Molecule | peracetic acid (ppm), 5 min [1] | peracetic acid (ppm), 30 min [1] | peracetic acid (ppm), 5 min [2] | peracetic acid (ppm), 30 min [2] | 250 mM H2O2 peracetic acid (ppm), 5 min [3] | 250 mM H2O2 peracetic acid (ppm), 30 min [3] | 500 mM H2O2 peracetic acid (ppm), 5 min [3] | 500 mM H2O2 peracetic acid (ppm), 30 min [3] | acetamide (250 mM) peracetic acid (ppm), 5 min ([4]; 5 min) | acetamide (250 mM) peracetic acid (ppm), 30 min ([4]; 30 min) | diacetamide (250 mM) peracetic acid (ppm), 5 min ([5]; 5 min) | diacetamide (250 mM) peracetic acid (ppm), 30 min ([5]; 30 min) | acetamide (250 mM) peracetic acid (ppm), 5 min ([6]; 5 min) | acetamide (250 mM) peracetic acid (ppm), 30 min ([6]; 30 min) |
| --- | --- | --- | --- | --- | --- | --- | --- | --- | --- | --- | --- | --- | --- | --- |
| ICR-116: Mucor miehei lipase, BioCatalytics (protein, UniProt P19515 95-363, looked up) Lipase: SIDGGIRAATSQEINELTYYTTLSANSYCRTVIPGATWDCIHCDATEDLKIIKTWSTLIYDTNAMVARGDSEKTIYIVFRGSSSIRNWIADLTFVPVSYPPVSGTKVHKGFLDSYGEVQNELVATVLDQFKQYPSYKVAVTGHSLGGATALLCALDLYQREEGLSSSNLFLYTQGQPRVGDPAFANYVVSTGIPYRRTVNERDIVPHLPPAAFGFLHAGEEYWITDNSPETVQVCTSDLETSDCSNSIVPFTSVLDHLSYFGINTGLCT | 238 ppm | 117 ppm | 14 ppm | 0 ppm | 0 ppm | 7 ppm | 0 ppm | 0 ppm | – | – | – | – | – | – |
| Proteinase K, T. album, recombinantly expressed in P. pastoris: Proteinase K, T. album, recombinantly expressed in P. pastoris, Roche 3115879 (protein, UniProt P06873 106-384, looked up, recombinant, Pichia pastoris) Proteinase K: AAQTNAPWGLARISSTSPGTSTYYYDESAGQGSCVYVIDTGIEASHPEFEGRAQMVKTYYYSSRDGNGHGTHCAGTVGSRTYGVAKKTQLFGVKVLDDNGSGQYSTIIAGMDFVASDKNNRNCPKGVVASLSLGGGYSSSVNSAAARLQSSGVMVAVAAGNNNADARNYSPASEPSVCTVGASDRYDRRSSFSNYGSVLDIFGPGTSILSTWIGGSTRSISGTSMATPHVAGLAAYLMTLGKTTAASACRYIADTANKGDLSNIPFGTVNLLAYNNYQA | – | – | – | – | – | – | – | – | 26 ppm | 43 ppm | 66 ppm | 99 ppm | 150 ppm | 194 ppm |
| ICR-107: Pseudomonas cepacia lipase, BioCatalytics (protein, UniProt P22088 45-364, looked up) Triacylglycerol lipase: AAGYAATRYPIILVHGLSGTDKYAGVLEYWYGIQEDLQQNGATVYVANLSGFQSDDGPNGRGEQLLAYVKTVLAATGATKVNLVGHSQGGLSSRYVAAVAPDLVASVTTIGTPHRGSEFADFVQDVLAYDPTGLSSSVIAAFVNVFGILTSSSHNTNQDALAALQTLTTARAATYNQNYPSAGLGAPGSCQTGAPTETVGGNTHLLYSWAGTAIQPTLSVFGVTGATDTSTLPLVDPANVLDLSTLALFGTGTVMINRGSGQNDGLVSKCSALYGKVLSTSYKWNHLDEINQLLGVRGAYAEDPVAVIRTHANRLKLAGV | 179 ppm | 0 ppm | 32 ppm | 135 ppm | 0 ppm | 102 ppm | 17 ppm | 54 ppm | – | – | – | – | – | – |
| ICR-115: Thermomyces languinosus lipase, BioCatalytics (protein, UniProt O59952 23-291, looked up) Lipase: EVSQDLFNQFNLFAQYSAAAYCGKNNDAPAGTNITCTGNACPEVEKADATFLYSFEDSGVGDVTGFLALDNTNKLIVLSFRGSRSIENWIGNLNFDLKEINDICSGCRGHDGFTSSWRSVADTLRQKVEDAVREHPDYRVVFTGHSLGGALATVAGADLRGNGYDIDVFSYGAPRVGNRAFAEFLTVQTGGTLYRITHTNDIVPRLPPREFGYSHSSPEYWIKSGTLVPVTRNDIVKIEGIDATGGNNQPNIPDIPAHLWYFGLIGTCL | 216 ppm | 113 ppm | 206 ppm | 132 ppm | 0 ppm | 8 ppm | 11 ppm | 8 ppm | – | – | – | – | – | – |
| ICR-114: porcine pancreas lipase, BioCatalytics (protein, UniProt P00591 1-450, looked up) Pancreatic triacylglycerol …: SEVCFPRLGCFSDDAPWAGIVQRPLKILPWSPKDVDTRFLLYTNQNQNNYQELVADPSTITNSNFRMDRKTRFIIHGFIDKGEEDWLSNICKNLFKVESVNCICVDWKGGSRTGYTQASQNIRIVGAEVAYFVEVLKSSLGYSPSNVHVIGHSLGSHAAGEAGRRTNGTIERITGLDPAEPCFQGTPELVRLDPSDAKFVDVIHTDAAPIIPNLGFGMSQTVGHLDFFPNGGKQMPGCQKNILSQIVDIDGIWEGTRDFVACNHLRSYKYYADSILNPDGFAGFPCDSYNVFTANKCFPCPSEGCPQMGHYADRFPGKTNGVSQVFYLNTGDASNFARWRYKVSVTLSGKKVTGHILVSLFGNEGNSRQYEIYKGTLQPDNTHSDEFDSDVEVGDLQKVKFIWYNNNVINPTLPRVGASKITVERNDGKVYDFCSQETVREEVLLTLNPC | 135 ppm | 0 ppm | 165 ppm | 53 ppm | 0 ppm | 0 ppm | 0 ppm | 0 ppm | – | – | – | – | – | – |
